According to patent US20010006793A1, “MODULATORS OF EUKARYOTIC CASPASES” (priority 1998, published 2001):

B1: Human Myelin Basic Protein: product encoded by human brain cDNA, identified as caspase inhibitor (protein)
chain: MASQKRPSQRHGSKYLATASTMDHARHGFLPRHRDTGILDSIGRFFGGDRGAPKRGSGKDSHHPARTAHYGSLPQKSHGRTQDENPVVHFFKNIVTPRTPPPSQGKGRGLSLSRFSWGAEGQRPGFGYGGRASDYKSAHKGFKGVDAQGTLSKIFKLGGRDSRSGSPMARR
B2: Human Ubiquitin C-terminal Hydrolase: product encoded by human brain cDNA; also known as UHX1 (protein)
chain: MAVAPRLFGGLCFRFRDQNPEVAVEGRLPISHSCVGCRRERTAMATVAANPAAAAAAVAAAAAVTEDREPQHEELPGLDSQWRQIENGESGRERPLRAGESWFLVEKHWYKQWEAYVQGGDQDSSTFPGCINNATLFQDEINWRLKEGLVEGEDYVLLPAAAWHYLVSWYGLEHGQPPIERKVIELPNIQKVEVYPVELLLVRHNDLGKSHTVQFSHTDSIGLVLRTARERFLVEPQEDTRLWAKNSEGSLDRLYDTHITVLDAALETGQLIIMETRKKDGTWPSAQLHVMNNNMSEEDEDFKGQPGICGLTNLGNTCFMNSALQCLSNVPQLTEYFLNNCYLEELNFRNPLGMKGEIAEAYADLVKQAWSGHHRSIVPHVFKNKVGHFASQFLGYQQHDSQELLSFLLDGLHEDLNRVKKKEYVELCDAAGRPDQEVAQEAWQNHKRRNDSVIVDTFHGLFKSTLVCPDCGNVSVTFDPFCYLSVPLPISHKRVLEVFFIPMDPRRKPEQHRLVVPKKGKISDLCVALSKHTGISPERMMVADVFSHRFYKLYQLEEPLSSILDRDDIFVYEVSGRIEAIEGSREDIVVPVYLRERTPARDYNNSYYGLMLFGHPLLVSVPRDRFTWEGLYNVLMYRLSRYVTKPNSDDEDDGDEKEDDEEDKDDVPGPSTGGSLRDPEPEQAGPSSGVTNRCPFLLDNCLGTSQWPPRRRRKQLFTLQTVNSNGTSDRTTSPEEVHAQPYIAIDWEPEMKKRYYDEVEAEGYVKHDCVGYVMKKAPVRLQECIELFTTVETLEKENPWYCPSCKQHQLATKKLDLWMLPEILIIHLKRFSYTKFSREKLDTLVEFPIRDLDFSEFVIQPQNESNPELYKYDLIAVSNHYGGMRDGHYTTFACNKDSGQWHYFDDNSVSPVNENQIESKAAYVLFYQRQDVARRLLSPAGSSGAPASPACSSPPSSEFMDVN
B3: Glutamate-Binding Subunit of a Human NMDA Receptor Complex: product encoded by human brain cDNA, identified as caspase inhibitor (protein)
chain: MSHEKSFLVSGDNYPPPNPGYPGGPQPPMPPYAQPPYPGAPYPQPPFQPSPYGQPGYPHGPSPYPQGGYPQGPYPQGGYPQGPYPQEGYPQGPYPQGGYPQGPYPQSPFPPNPYGQPQVFPGQDPDSPQHGNYQEEGPPSYYDNQDFPATNWDDKSIRQAFIRKVFLVLTLQLSVTLSTVSVFTFVAEVKGFVRENVWTYYVSYAVFFISLIVLSCCGDFRRKHPWNLVALSVLTASLSYMVGMIASFYNTEAVIMAVGITTAVCFTVVIFSMQTRYDFTSCMGVLLVSMVVLFIFAILCIFIRNRILEIVYASLGALLFTCFLAVDTQLLLGNKQLSLSPEEYVFAALNLYTDIINIFLYILTIIGRAKE
B4: Human Tissue Inhibitor of Metalloprotease-3: product encoded by human brain cDNA, identified as caspase inhibitor (protein)
chain: CTCSPSHPQDAFCNSDIVIRAKVVGKKLVKEGPFGTLVYTIKQMKMYRGFTKMPHVQYIHTEASESLCGLKLEVNKYQYLLTGRVYDGKMYTGLCNFVERWDQLTLSQRKGLNYRYHLGCNCKIKSCYYLPCFVTSKNECLWTDMLSNFGYPGYQSKHYACIRQKGGYCSWYRGWAPPDKSIINATDP
B5: Human hnRNP D: product encoded by human brain cDNA, identified as caspase inhibitor (protein, UniProt Q14103 2-355, looked up)
Heterogeneous nuclear …: SEEQFGGDGAAAAATAAVGGSAGEQEGAMVAATQGAAAAAGSGAGTGGGTASGGTEGGSAESEGAKIDASKNEEDEGHSNSSPRHSEAATAQREEWKMFIGGLSWDTTKKDLKDYFSKFGEVVDCTLKLDPITGRSRGFGFVLFKESESVDKVMDQKEHKLNGKVIDPKRAKAMKTKEPVKKIFVGGLSPDTPEEKIREYFGGFGEVESIELPMDNKTNKRRGFCFITFKEEEPVKKIMEKKYHNVGLSKCEIKVAMSKEQYQQQQQWGSRGGFAGRARGRGGGPSQNWNQGYSNYWNQGYGNYGYNSQGYGGYGGYDYTGYNNYYGYGDYSNQQSGYGKVSRRGGHQNSYKPY
B6: Viral protein p35: known viral protein caspase inhibitor, expressed from YCpGAL1-p35-U vector (protein)
chain: MCVIFPVEIDVSQTIIRDCQVDKQTRELVYINKIMNTQLTKPVLMMFNISGPIRSVTRKNNNLRDRIKSKVDEQFDQLERDYSDQMDGFHDSIKYFKDEHYSVSCQNGSVLKSKFAKILKSHDYTDKKSIEAYEKYCLPKLVDERNDYYVAVCVLKPGFENGSNQVLSFEYNPIGNKVIVPFAHEINDTGLYEYDVVAYVDSVQFDGEQFEEFVQSLILPSSFKNSEKVLYYNEASKNKSMIYKALEFTTESSWGKSEKYNWKIFCNGFIYDKKSKVLYVKLHNVTSALNKNVILNTIK
B7: Human Death Associated Protein 1: product encoded by human brain cDNA; also known as DAP-1 (protein)
chain: MSSPPEGKLETKAGHPPAVKAGGMRIVQKHPHTGDTKEEKDKDDQEWESPSPPKPTVFISGVIARGDKDFPPAAAQVAHQKPHASMDKHPSPRTQHIQQPRK

Molecular target: T1, human caspase-8β (Homo sapiens, UniProt Q14790)
T1 construct: expressed in transfected cells; host or cells: Saccharomyces cerevisiae FY250, single-copy ARS/CEN vector YCpGAL1-caspase-8β-L, GAL1 promoter
Experiment: Yeast screening method: suppression of caspase-8β-induced lethality in S. cerevisiae FY250 double transformants on galactose medium
Assay type: cell-based
Details: for identified as a caspase inhibitor (product of human brain cDNA suppressing caspase-8β-induced cell death): FY250 double transformants, GAL1-driven expression, galactose-containing medium; for Caspase Inhibitor: Table 1 Caspase Modulators, identified using the screening method of the invention
Excerpt: The invention includes a screening method of determining whether a compound is a caspase modulator. […] A difference between the viability indicator of the first cell and the viability indicator of the second cell is an indication that the compound is a caspase modulator.
As described herein, the transformant expresses the caspase when an inducer of the inducible promoter of the caspase vector is provided to the caspase transformant. When the caspase transformant expresses the caspase, cytotoxicity ensues in the caspase transformant. If an inhibitor of the caspase is provided to the caspase transformant prior to the onset of cytotoxicity, the caspase transformant may be enabled to survive expression of the caspase or the onset of cytotoxicity may be delayed.
The gene encoding p35 was cloned into a yeast-based expression vector designated YCpGAL1-U (wherein U designates a URA3 selectable marker) to yield a YCpGAL1-p35-U inhibitor vector. Yeast cells were co-transformed with the inhibitor vector, YCpGAL1-p35-U, and with the caspase vector, YCpGAL1-caspase-8β-L, to yield a double transformant. Double transformants were plated on SC-leucine-uracil medium supplemented with dextrose to repress GAL1 promoter function. Serial ten-fold dilutions of individual double transformants grown in SC-leucine-uracil medium containing dextrose were prepared and spotted onto SC-leucine-uracil medium comprising dextrose or galactose.
Individual viable colonies of double transformant are isolated, and the test vector comprising the unknown cDNA is isolated.
The screening method used in this Example was performed as follows. A yeast double transformant was prepared by transforming S. cerevisiae strain FY250 with two yeast expression vectors. The first yeast expression vector comprised cDNA encoding a self-activating form of human caspase-8β operably linked to a GAL1 promoter and a LEU2 selectable marker. This first vector was a single copy vector and was designated YCpGAL1-caspase-8β-L. A plurality of second yeast expression vectors was used, each comprising a single random human cDNA sequence operably linked to a GAL1 promoter and a URA3 selectable marker. The cDNA sequences used to generate the plurality of second yeast expression vectors were obtained from a library of cDNAs prepared from human brain cells. The second vectors were multicopy vectors.
Double transformants were propagated on plates containing SC-leucine-uracil agar comprising dextrose. Colonies of double transformants were replica plated on plates containing medium comprising galactose, whereby expression of caspase-8β and of any product encoded by the cDNA of the second vector was induced. […] The second vector was recovered from individual colonies of double transformants which were able to survive on the galactose-containing medium and used, along with the first vector, to transform fresh FY250 cells. […] The identity of individual products encoded by the cDNA of individual second vectors was established by determining the nucleotide sequence of the cDNA and comparing the sequence with databases of known human gene sequences, including Genbank, the EST Database, and the Human Genome Database.

T1 sequence (Q14790 1-464 isoform Q14790-2): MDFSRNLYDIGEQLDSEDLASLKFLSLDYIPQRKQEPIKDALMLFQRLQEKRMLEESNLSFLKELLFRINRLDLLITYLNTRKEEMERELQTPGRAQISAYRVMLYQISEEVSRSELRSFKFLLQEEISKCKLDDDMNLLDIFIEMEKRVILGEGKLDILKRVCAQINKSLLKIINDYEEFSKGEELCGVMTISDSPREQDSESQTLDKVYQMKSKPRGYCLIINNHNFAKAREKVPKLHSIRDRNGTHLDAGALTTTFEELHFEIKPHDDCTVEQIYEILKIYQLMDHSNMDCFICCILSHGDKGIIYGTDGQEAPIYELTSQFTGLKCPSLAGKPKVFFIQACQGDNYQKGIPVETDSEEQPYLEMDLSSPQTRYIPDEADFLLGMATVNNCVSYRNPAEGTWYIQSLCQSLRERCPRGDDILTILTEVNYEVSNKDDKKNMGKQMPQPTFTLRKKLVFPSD

| Molecule | identified as a caspase inhibitor (product of human brain cDNA suppressing caspase-8β-induced cell death) | Caspase Inhibitor | survival of double transformants on galactose-containing test medium (FY250 co-transformed with YCpGAL1-p35-U and YCpGAL1-caspase-8β-L, SC-leucine-uracil medium with galactose) |
| --- | --- | --- | --- |
| B1 | caspase inhibitor | ✓ |  |
| B2 | caspase inhibitor | ✓ |  |
| B3 |  | ✓ |  |
| B4 | caspase inhibitor | ✓ |  |
| B5 | caspase inhibitor | ✓ |  |
| B6 |  | ✓ | survived on this medium |
| B7 | caspase inhibitor | ✓ |  |
